Laboratory results taken from patent US20250011363A1, “OPTIMIZED SHORTENED PEPTIDE THAT BINDS TO ACETYLCHOLINE RECEPTOR, AND USE THEREOF” (SKINMED CO., LTD., priority 2021, published 2025).

target: acetylcholine receptor (Homo sapiens, UniProt P02708); experiment: SPR binding affinity (RU) of optimized 5mer/6mer/7mer peptides, Examples 6-7; settings: SPR, peptides tested at 10 μM; 6mer-1 Top sequence
In short: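 Binding response (RU) to the human acetylcholine receptor was measured by SPR. Each 5mer or 6mer library peptide was applied at 10 μM, with sequences drawn from top and bottom amino-acid combinations.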

acetylcholine receptor, sequence (P02708 21-457): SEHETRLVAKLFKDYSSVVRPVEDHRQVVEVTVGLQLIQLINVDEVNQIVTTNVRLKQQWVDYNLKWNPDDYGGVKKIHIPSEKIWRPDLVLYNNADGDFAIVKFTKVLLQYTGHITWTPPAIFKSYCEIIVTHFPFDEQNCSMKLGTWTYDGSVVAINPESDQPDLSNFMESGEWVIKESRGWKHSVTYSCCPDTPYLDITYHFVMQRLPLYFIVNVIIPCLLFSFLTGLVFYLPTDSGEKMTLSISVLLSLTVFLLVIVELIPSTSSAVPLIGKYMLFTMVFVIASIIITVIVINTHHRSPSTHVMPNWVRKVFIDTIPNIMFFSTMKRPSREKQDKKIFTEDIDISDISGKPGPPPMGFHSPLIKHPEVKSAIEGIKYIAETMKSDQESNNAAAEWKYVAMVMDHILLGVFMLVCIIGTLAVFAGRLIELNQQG

Substance | Binding affinity
6mer-1-429 (RRQRRK) | 135 Ru
6mer-1-430 (KKQLQK) | 144 Ru
6mer-1-431 (RRRFRR) | 144 Ru
6mer-1-432 (RKGIQK) | 139 Ru
6mer-1-433 (RKQQYR) | 154 Ru
6mer-1-434 (KRWVCR) | 137 Ru
6mer-1-435 (RKWRCK) | 135 Ru
6mer-1-436 (KKLFYK) | 148 Ru
6mer-1-437 (RKWFLK) | 131 Ru
6mer-1-438 (RRGFQK) | 142 Ru
6mer-1-439 (KRRQTK) | 121 Ru
6mer-1-440 (KRVYSK) | 153 Ru
6mer-1-441 (RRVYYR) | 146 Ru
6mer-1-442 (RKLQYK) | 131 Ru
6mer-1-443 (RKVLLK) | 145 Ru
6mer-1-444 (KKWILK) | 144 Ru
6mer-1-445 (KRVRLR) | 145 Ru
6mer-1-446 (RRVIRR) | 124 Ru
6mer-1-447 (RRRQQK) | 146 Ru
6mer-1-448 (RKRFSR) | 141 Ru
6mer-1-449 (KRGRCK) | 135 Ru
6mer-1-450 (RKVVYK) | 151 Ru
6mer-1-451 (RKVRLR) | 153 Ru

Substance | Binding affinity
6mer-1-452 (KRLYTR) | 141 Ru
6mer-1-453 (KKWQQK) | 154 Ru
6mer-1-454 (RKVLRR) | 124 Ru
6mer-1-455 (RRVFYK) | 126 Ru
6mer-1-456 (RRGQYR) | 153 Ru
6mer-1-457 (RKLLCR) | 121 Ru
6mer-1-459 (RRWVYK) | 131 Ru
6mer-1-460 (RRGFYR) | 148 Ru
6mer-1-461 (RRGYTR) | 142 Ru
6mer-1-462 (RKQILK) | 126 Ru
6mer-1-463 (KRSFRK) | 153 Ru
6mer-1-464 (RRQRLK) | 131 Ru
6mer-1-465 (RKQVYK) | 154 Ru
6mer-1-466 (KRSICR) | 148 Ru
6mer-1-467 (KRGYQK) | 121 Ru
6mer-1-468 (RRLYRR) | 153 Ru
6mer-1-469 (KKLIYR) | 139 Ru
6mer-1-470 (KKWVYR) | 148 Ru
6mer-1-471 (KKWRCK) | 123 Ru
6mer-1-472 (KRQRCK) | 142 Ru
6mer-1-473 (KKVLSK) | 154 Ru
6mer-1-474 (KRLFSK) | 121 Ru
6mer-1-475 (RKLQTK) | 148 Ru

Substance | Binding affinity
6mer-1-476 (KRRRQK) | 154 Ru
6mer-1-477 (KRQQTK) | 145 Ru
6mer-1-478 (RKVRYK) | 139 Ru
6mer-1-479 (RRSLTR) | 135 Ru
6mer-1-480 (KKQFYK) | 121 Ru
6mer-1-481 (KRWRCK) | 133 Ru
6mer-1-482 (RKQVRK) | 133 Ru
6mer-1-483 (KRQVTK) | 151 Ru
6mer-1-484 (KKLYLR) | 154 Ru
6mer-1-485 (RRWYRR) | 126 Ru
6mer-1-486 (KRQVRK) | 151 Ru
6mer-1-487 (RKGRRK) | 121 Ru
6mer-1-488 (KKWYSK) | 135 Ru
6mer-1-489 (KKVITK) | 148 Ru
6mer-1-490 (KKLFRR) | 133 Ru
6mer-1-491 (RKLRLR) | 137 Ru
6mer-1-492 (RRWRQK) | 139 Ru
6mer-1-493 (KRGYLR) | 131 Ru
6mer-1-494 (KKLFSR) | 128 Ru
6mer-1-495 (RKGFQR) | 126 Ru
6mer-1-496 (RRVYQR) | 148 Ru
6mer-1-497 (KRRQLR) | 133 Ru
6mer-1-498 (RKRQQK) | 139 Ru

Substance | Binding affinity
6mer-1-499 (RKLFYR) | 149 Ru
6mer-1-500 (RKLQSK) | 151 Ru
6mer-1-501 (KRVLYK) | 154 Ru
6mer-1-502 (RKLFSR) | 146 Ru
6mer-1-503 (KRRLCK) | 151 Ru
6mer-1-504 (RRSITR) | 122 Ru
6mer-1-505 (RRRFTR) | 148 Ru
6mer-1-506 (RRRLSK) | 151 Ru
6mer-1-507 (RRSQSK) | 139 Ru
6mer-1-508 (RRQFSK) | 135 Ru
6mer-1-509 (RKWLRK) | 128 Ru
6mer-1-510 (KRRQSR) | 122 Ru
6mer-1-511 (RKVYRR) | 136 Ru
6mer-1-512 (RKWICK) | 154 Ru
6mer-1-513 (RKQIRR) | 154 Ru
6mer-1-514 (KKGRSK) | 128 Ru
6mer-1-515 (RRGLSR) | 139 Ru
6mer-1-516 (KKRFSR) | 139 Ru
6mer-1-517 (KKGLCK) | 139 Ru
6mer-1-518 (KRWVLK) | 153 Ru
6mer-1-519 (KRRQCK) | 147 Ru
6mer-1-520 (KRQIYK) | 127 Ru
6mer-1-521 (RKVISR) | 128 Ru

Substance | Binding affinity
6mer-1-522 (RKRRLR) | 126 Ru
6mer-1-523 (KRRRSK) | 139 Ru
6mer-1-524 (KKGRQK) | 148 Ru
6mer-1-525 (RRQLRR) | 139 Ru
6mer-1-526 (KRGYTR) | 148 Ru
6mer-1-527 (KKGIYR) | 142 Ru
6mer-1-528 (KRSYTR) | 139 Ru
6mer-1-529 (RRSLCK) | 139 Ru
6mer-1-530 (KRLVSK) | 137 Ru
6mer-1-531 (RKGQTK) | 135 Ru
6mer-1-532 (KKSQLR) | 121 Ru
6mer-1-533 (RKWFSR) | 145 Ru
6mer-1-534 (KKRLCR) | 126 Ru
6mer-1-535 (RRVILK) | 139 Ru
6mer-1-536 (RRWFRK) | 151 Ru
6mer-1-537 (RRGLCK) | 154 Ru
6mer-1-538 (RRSQCK) | 142 Ru
6mer-1-539 (KRGIRK) | 148 Ru
6mer-1-540 (KRVQTR) | 128 Ru
6mer-1-541 (RKWFTR) | 136 Ru
6mer-1-542 (KRWFRR) | 128 Ru
6mer-1-543 (RRSVCK) | 145 Ru
6mer-1-544 (KRVICR) | 149 Ru

Substance | Binding affinity
6mer-1-545 (RRSYRK) | 127 Ru
6mer-1-546 (RKLVQR) | 123 Ru
6mer-1-547 (RKVQQR) | 148 Ru
6mer-1-548 (RRVYSR) | 123 Ru
6mer-1-549 (KKSYQR) | 142 Ru
6mer-1-550 (RRLICR) | 148 Ru
6mer-1-551 (KRGRLR) | 142 Ru
6mer-1-552 (RKRYRK) | 144 Ru
6mer-1-553 (RRGVRK) | 128 Ru
6mer-1-554 (KRSVTR) | 131 Ru
6mer-1-555 (KKWYLK) | 128 Ru
6mer-1-556 (KKGFTK) | 145 Ru
6mer-1-557 (KRQVQK) | 128 Ru
6mer-1-558 (RRLIQR) | 139 Ru
6mer-1-559 (RRRLTK) | 139 Ru
6mer-1-560 (RRSFSK) | 127 Ru
6mer-1-561 (RKVYLK) | 131 Ru
6mer-1-562 (KRSYQR) | 148 Ru
6mer-1-563 (RRSFTR) | 139 Ru
6mer-1-564 (KRSITK) | 139 Ru
6mer-1-565 (KRSIRR) | 151 Ru
6mer-1-566 (KKSFCR) | 148 Ru
6mer-1-567 (KKRVSR) | 136 Ru

Substance | Binding affinity
6mer-1-568 (KRWQQK) | 147 Ru
6mer-1-569 (RRVITK) | 148 Ru
6mer-1-570 (RKRLRK) | 122 Ru
6mer-1-571 (RKLLCK) | 154 Ru
6mer-1-572 (KRVLLK) | 126 Ru
6mer-1-573 (KRVLLR) | 126 Ru
6mer-1-574 (RKSYLR) | 148 Ru
6mer-1-575 (KRWVRR) | 148 Ru
6mer-1-576 (RKRQRR) | 153 Ru
6mer-1-577 (KKQYQR) | 128 Ru
6mer-1-578 (RKGQYK) | 139 Ru
6mer-1-579 (KRSVRK) | 148 Ru
6mer-1-580 (KKSLQK) | 121 Ru
6mer-1-581 (KRGLYK) | 139 Ru
6mer-1-582 (KRWFLK) | 137 Ru
6mer-1-583 (KKVLYK) | 139 Ru
6mer-1-584 (RKQVSK) | 127 Ru
6mer-1-585 (RKSRQK) | 144 Ru
6mer-1-586 (KRVICK) | 136 Ru
6mer-1-587 (KKQLLK) | 148 Ru
6mer-1-588 (RRLVRK) | 153 Ru
6mer-1-589 (KKLQQK) | 139 Ru
